Substrate in data set [1]: NC(=O)C1=CN([C@@H]2O[C@H](COP(=O)(O)OP(=O)(O)OC[C@H]3O[C@@H](n4cnc5c(N)ncnc54)[C@H](O)[C@@H]3O)[C@@H](O)[C@H]2O)C=CC1
The data set can be described thus: purified protein, by the assay type. Conditions: 25.0 °C.

Substrate in data set [2]: CC1=CC(=O)c2ccccc2C1=O
The data set can be described thus: purified protein, by the assay type. Particulars: 25.0 °C.

B1: Ec-NDH2 (Escherichia coli K-12) (protein)
chain: TTPLKKIVIVGGGAGGLEMATQLGHKLGRKKKAKITLVDRNHSHLWKPLLHEVATGSLDEGVDALSYLAHARNHGFQFQLGSVIDIDREAKTITIAELRDEKGELLVPERKIAYDTLVMALGSTSNDFNTPGVKENCIFLDNPHQARRFHQEMLNLFLKYSANLGANGKVNIAIVGGGATGVELSAELHNAVKQLHSYGYKGLTNEALNVTLVEAGERILPALPPRISAAAHNELTKLGVRVLTQTMVTSADEGGLHTKDGEYIEADLMVWAAGIKAPDFLKDIGGLETNRINQLVVEPTLQTTRDPDIYAIGDCASCPRPEGGFVPPRAQAAHQMATCAMNNILAQMNGKPLKNYQYKDHGSLVSLSNFSTVGSLMGNLTRGSMMIEGRIARFVYISLYRMHQIALHGYFKTGLMMLVGSINRVIRPRLKLH
Regarding B1, in data set [1], the Km (as a rule, the substrate concentration at which the rate is half of its maximum) came out at 1.7 ± 1.09 µM and the kcat (as a rule, the maximal rate divided by the concentration of active sites) is 43.6 ± 4 s⁻¹. For the same protein, in data set [2], the Michaelis constant (Km) was found to be 15.6 ± 8.5 µM and the kcat came out at 107 ± 13.1 s⁻¹.

B2: Mc-NDH2 (Methylococcus capsulatus str. Bath) (protein)
chain: MQRKRNEQPLPRILIIGGGAGGLELATKLGRTLGKKGKAQVTLIDAHPTHIWKPLLHEVAAGTMDVNDDELDYLAQANACHFRFVLGRMSGLDRVAKQVKLAPMTNAAGEEVIPACSYPYDILVIAVGSVCNDFGVPGVAQNCIFLDTTEEAQQFHRRLLEAYMRAHAMGGAKQPGQLDVAIVGGGATGIELSAQLHQATRLLAAYGLDNVKPSDIKIHLIEAAPRLLPELPPRLSESTVKQLLALDVQLHLGERVVEARPDGVLTHTGKFIPATLKVWAAGVKAPDFLAQTDLETNRLNQVVVRQTLQTTRDDHIFAIGDCSACPWPERNTTVPPRAQSAHQQASTAYENILRLLAGKAPVDYRYRDYGSLVSLGKYSTVGNLMGNLLGSVMIEGVIARLVYLSLYKMHQYALFGPLRVGLIMIAHFFSQKLRPKIKLH
Consider B2, for which, in data set [1], the Michaelis constant (Km) is 9.5 ± 5.3 µM and the turnover number (kcat) worked out at 9.08 ± 1.1 s⁻¹. In data set [2], the Michaelis constant (Km) was found to be 12.9 ± 5.4 µM and the catalytic constant (kcat) was determined as 3.9 ± 0.4 s⁻¹.
